{"source": "paper PMC6159515", "biological_target": "CglEndoMS-ΔCter, His-tagged (lacks the five carboxy-terminal residues of CglEndoMS) (Corynebacterium glutamicum ATCC 13032)", "assay": "SEC"}
{"substance": "CglEndoMS-ΔCter, His-tagged (lacks the five carboxy-terminal residues of CglEndoMS) (domain or fragment)", "values": [{"measurement": "stoichiometry N", "result": 2}]}
